For the experiment, the target named is rabbit skeletal muscle Ca2+ release channel (ryanodine receptor), purified 30 S complex (rabbit) (UniProt P11716). Description: single-channel recording in planar lipid bilayers.

pKd: −log10 of the molar value.

On to “imperatoxin activator (IpTxa), synthetic (from UniProt P59868 1-33) (peptide)”, for which the K m (of P substate against [IpTxa]) was 2 nM.

The substance “imperatoxin activator (IpTxa), native, purified from Pandinus imperator venom (from UniProt P59868 1-33) (peptide)” showed a pKd of 7.74, a time constant of dwell times in the burst (toxin-free) state at 100 nM IpTxa of 965 ms and a time constant of dwell times in the subconductance (toxin-bound) state of 3380 ms.

By pKd is commonly meant the Kd on a negative log10 scale, so that one unit is a factor of ten. A low value points to a high Kd.

These data come from publication PMC2217137.
